Experimental data taken from patent US11111295B2, “Antibody for anti-claudin 18A2 and use thereof” (CAFA THERAPEUTICS LIMITED, priority 2016, dated 2021).

B1: 4A11: murine anti-CLD18A2 monoclonal antibody, VH SEQ ID NO:11, VL SEQ ID NO:9 (antibody, V domains shown)
VH: QIQLVQSGPELKKPGETVKISCKASGYTFTNYGMNWVKQAPGKGLKWMGWINTNTGEPTYAEEFKGRFAFSLETSASTAYLQINNLKNEDTATYFCARFSYGNSFAYWGQGTTVTVSS
VL: DIVMTQSPSSLSVSAGEKVTMSCKSSQSLLNSGNQKNYLAWYQQKPGQPPKLLIYGASTRESGVPDRFTGSGSGTDFTLTISSVQAEDLAVYYCQNDHSYPLTFGAGTKLELKR
B2: 8E5: murine anti-CLD18A2 monoclonal antibody, VH SEQ ID NO:15, VL SEQ ID NO:13 (antibody, V domains shown)
VH: DVQLQESGPDLVKPSQSLSLTCTVTGYSITSGYNWHWIRQFPGNKMEWMGYIHYTGSTNYNPSLRSRISITRDTSKNQFFLQLNSVTTDDTATYYCTRIYNGNSFPYWGQGTSVTVSS
VL: DIVMTQSPSSLTVTPGEKVTMTCKSSQSLFNSGNQKNYLTWYQQRPGQPPKMLIYWASTRESGVPDRFTGSGSGTDFTLTISSVQAEDLAVFYCQNAYSFPYTFGGGTKLEIKR
B3: 3E12: murine anti-CLD18A2 monoclonal antibody, VH SEQ ID NO:7, VL SEQ ID NO:5 (antibody, V domains shown)
VH: QVQLQQSGPELVKPGALVKISCKASGYTFTSYDINWVKQRPGQGLEWIGWIYPGDGSTKYNEKFKGKATLTADKSSSTAYMQLSSLTSENSAVYFCARGGYRYDEAMDYWGQGTTVTVSS
VL: QIVLTQSPAIMSASPGEKVTMTCSASSSISYMHWYQQKPGTSPKRWIYDTSKLASGVPARFSGSGSGTSYSLTISSMEAEDAATYYCHQRSSYPYTFGGGTKLEIKR

Legend:
human CLD18A2 [1] = molecular target: T1, human CLD18A2 (Homo sapiens, UniProt P56856); assay: Flow cytometry binding of hybridoma supernatants to HEK293 cells stably transfected with human CLD18A2; details: hybridoma supernatant; most of subclones after two rounds of subcloning; HEK293 transfectants
T1 construct: expressed in transfected cells
T1 sequence (P56856 1-261 isoform P56856-2): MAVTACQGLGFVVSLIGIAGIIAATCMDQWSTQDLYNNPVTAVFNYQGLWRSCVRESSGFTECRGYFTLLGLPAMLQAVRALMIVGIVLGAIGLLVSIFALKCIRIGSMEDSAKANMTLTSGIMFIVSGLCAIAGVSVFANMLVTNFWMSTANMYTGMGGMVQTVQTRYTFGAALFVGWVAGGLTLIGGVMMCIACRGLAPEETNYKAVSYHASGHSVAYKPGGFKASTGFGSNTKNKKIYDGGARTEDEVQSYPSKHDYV
From the text: Individual cells were screened for anti-CLD18A2 monoclonal antibody by flow cytometry, and HEK293 cells (HEK-CLD18A2) stably expressing human CLD18A2 were used for primary screening by flow cytometry using a Guava easyCyte™ HT System instrument. The binding of the antibody to human CLD18A1 and CLD18A2 transformants was then compared by flow cytometry. The instrument used was the Guava easyCyte™ HT System.
After multiple rounds of preparation and screening of hybridomas, the inventors found several antibodies with relatively ideal binding properties.

human CLD18A2 [2] = molecular target: T1, human CLD18A2; assay: Flow cytometry binding of scFv_Fc fusion antibody to HEK293 cells stably transfected with human CLD18A2 (EC50); details: scFv fused to human IgG1 Fc portion, read-out: relative binding affinity EC50 value
Method: Binding of anti-Claudin 18A2 scFv_Fc fusion antibody to HEK293 cells stably transfected with CLD18A2 was determined by flow cytometry. Experimental data was analyzed using GraphPad Prism and Guava easyCyte™ HT System instrument as described in Example 1 to obtain EC50 value.
Expression vectors of ScFv Fc-form of the two mutants were constructed as described in Example 2, and according to the procedure of Example 2, and the experimental data was analyzed using GraphPad Prism and Guava easyCyte™ HT System instrument to obtain EC50.
The binding activity assay was performed as described in Example 2, and experimental data was analyzed using HEK293 cells (HEK-CLD18A2) stably expressing human CLD18A2, GraphPad Prism and Guava easyCyte™ HT System instrument to obtain EC50, and the results are shown in FIG. 5.
(5) The binding activity was tested, and experimental data was analyzed using HEK293 cells (HEK-CLD18A2) stably expressing human CLD18A2, GraphPad Prism and Guava easyCyte™ HT System instrument, and the results are shown in FIG. 6.
The mutant hu8E5-2I of the humanized antibody hu8E5 was constructed as described in Example 3. Experimental data was analyzed using HEK293 cells (HEK-CLD18A2) stably expressing human CLD18A2, GraphPad Prism and Guava easyCyte™ HT System instrument, and the results are shown in FIG. 7.

Molecule | binding to human CLD18A2 (human CLD18A2 [1]) | EC50 (human CLD18A2 [2]) [nM]
B1 | specifically bound to human CLD18A2 | –
B2 | specifically bound to human CLD18A2 | 49.2
B3 | specifically bound to human CLD18A2 | –
